Results taken from patent US20120087858A1 (AbbVie / Abbott, published 2012).

T1: Recombinant Human SOST (human, UniProt Q9BQB4 24-213)
T1 construct: Biacore reagent from R&D Systems; the Wnt-1/luciferase assay used Human Sclerostin (Abbott PR-1261069); also called Sclerostin; Human Sclerostin
T1 sequence (looked up): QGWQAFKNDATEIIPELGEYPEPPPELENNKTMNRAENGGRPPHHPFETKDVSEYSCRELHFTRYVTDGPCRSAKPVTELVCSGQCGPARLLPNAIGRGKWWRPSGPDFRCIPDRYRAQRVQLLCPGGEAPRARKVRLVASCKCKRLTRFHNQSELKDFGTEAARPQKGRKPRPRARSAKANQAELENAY


Assays:
[1] = molecular target: T2, Recombinant Human TNF-α/TNFSF1A (human, UniProt P01375 77-233); experiment: cell-based or functional assay
T2 sequence (P01375 77-233 limits assumed): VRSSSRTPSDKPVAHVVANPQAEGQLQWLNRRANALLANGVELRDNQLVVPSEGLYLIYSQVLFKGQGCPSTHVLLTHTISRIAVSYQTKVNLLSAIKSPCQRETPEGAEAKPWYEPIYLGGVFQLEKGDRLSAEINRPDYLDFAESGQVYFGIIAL

[2] = molecular target: T2, Recombinant Human TNF-α/TNFSF1A; experiment: Biacore SPR
Method: (§1) The BIACORE assay (Biacore, Inc, Piscataway, N.J.) determines the affinity of antibodies or DVD-Ig with kinetic measurements of on-rate and off-rate constants. Binding of antibodies or DVD-Ig to a target antigen (for example, a purified recombinant target antigen) is determined by surface plasmon resonance-based measurements with a Biacore® 1000 or 3000 instrument (Biacore® AB, Uppsala, Sweden) using running HBS-EP (10 mM HEPES [pH 7.4], 150 mM NaCl, 3 mM EDTA, and 0.005% surfactant P20) at 25° C. All chemicals are obtained from Biacore® AB (Uppsala, Sweden) or otherwise from a different source as described in the text. For example, approximately 5000 RU of goat anti-mouse IgG, (Fcγ), fragment specific polyclonal antibody (Pierce Biotechnology Inc, Rockford, Ill.) diluted in 10 mM sodium acetate (pH 4.5) is directly immobilized across a CMS research grade biosensor chip using a standard amine coupling kit according to manufacturer's instructions and procedures at 25 μg/ml. Unreacted moieties on the biosensor surface are blocked with ethanolamine. Modified carboxymethyl dextran surface in flowcell 2 and 4 is used as a reaction surface. Unmodified carboxymethyl dextran without goat anti-mouse IgG in flow cell 1 and 3 is used as the reference surface. For kinetic analysis, rate equations derived from the 1:1 Langmuir binding model are fitted simultaneously to association and dissociation phases of all eight injections (using global fit analysis) with the use of Biaevaluation 4.0.1 software. Purified antibodies or DVD-Ig are diluted in HEPES-buffered saline for capture across goat anti-mouse IgG specific reaction surfaces. Antibodies or DVD-Ig to be captured as a ligand (25 μg/ml) are injected over reaction matrices at a flow rate of 5 μl/min. The association and dissociation rate constants, kₒₙ (M⁻¹s⁻) and koff(s⁻¹) are determined under a continuous flow rate of 25 μl/min. Rate constants are derived by making kinetic binding measurements at different antigen concentrations ranging from 10-200 nM. The equilibrium dissociation constant (M) of the reaction between antibodies or DVD-Igs and the target antigen is then calculated from the kinetic rate constants by the following formula: KD=koff/kₒₙ. Binding is recorded as a function of time and kinetic rate constants are calculated.

Recombinant Human SOST = molecular target: T1, Recombinant Human SOST; experiment: Biacore SPR
Method: as §1

Recombinant Human β-NGF [3] = molecular target: T3, Recombinant Human β-NGF (human, UniProt P01138 122-241); experiment: cell-based or functional assay
T3 sequence (P01138 122-241 limits assumed): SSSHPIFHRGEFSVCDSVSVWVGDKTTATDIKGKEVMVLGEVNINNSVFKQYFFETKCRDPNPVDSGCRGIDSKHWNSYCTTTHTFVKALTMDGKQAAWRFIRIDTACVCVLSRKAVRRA

Recombinant Human β-NGF [4] = molecular target: T3, Recombinant Human β-NGF; experiment: Biacore SPR
Method: as §1

Binder | TNFα Neutralization Assay EC50 (L929 cells) [1] [nM] | Kd [2] [nM] | koff [2] [s⁻¹] | kon [2] [M⁻¹ s⁻¹] | Kd (Recombinant Human SOST) [nM] | koff (Recombinant Human SOST) [s⁻¹] | kon (Recombinant Human SOST) [M⁻¹ s⁻¹] | NGF Inhibition Assay EC50 (TF-1 cell proliferation) (Recombinant Human β-NGF [3]) [nM] | Kd (Recombinant Human β-NGF [4]) [nM] | koff (Recombinant Human β-NGF [4]) [s⁻¹] | kon (Recombinant Human β-NGF [4]) [M⁻¹ s⁻¹]
DVD1525 (bispecific antibody, human IgG1, kappa, DVD-Ig; linker set 3; also called DVD1525H; DVD1525L) heavy: not shown light: EIVMTQSPATLSVSPGERATLSCRASQSVSSNLAWYQQKPGQAPRLLIHGASIRATGLPARFSGSGSGTEFTLTISSLQSEDFAVYYCQQYNYWWTFGQGTKVEIKRTVAAPDVQMIQSPSSLSASLGDIVTMTCQASQGTSINLNWFQQKPGKAPKLLIYGSSNLEDGVPSRFSGSRYGTDFTLTISSLEDEDLATYFCLQHSYLPYTFGGGTKLEIKRTVAAPSVFIFPPSDEQLKSGTASVVCLLNNFYPREAKVQWKVDNALQSGNSQESVTEQDSKDSTYSLSSTLTLSKADYEKHKVYACEVTHQGLSSPVTKSFNRGEC | 0.0029 | 0.015 | 3e-05 | 2e+06 | 9.8 | 0.00089 | 91000 | – | – | – | –
AB020 (antibody, V domains shown, Parent antibody; also called NGF parent antibody) VH: QVQLQESGPGLVKPSETLSLTCTVSGFSLIGYDLNWIRQPPGKGLEWIGIIWGDGTTDYNSAVKSRVTISKDTSKNQFSLKLSSVTAADTAVYYCARGGYWYATSYYFDYWGQGTLVTVSS VL: DIQMTQSPSSLSASVGDRVTITCRASQSISNNLNWYQQKPGKAPKLLIYYTSRFHSGVPSRFSGSGSGTDFTFTISSLQPEDIATYYCQQEHTLPYTFGQGTKLEIKR | – | – | – | – | – | – | – | 0.003 | 0.00673 | 4.08e-06 | 606000
DVD1483 (bispecific antibody, human IgG1, kappa, DVD-Ig; linker set 2; also called DVD1483H; DVD1483L) heavy: not shown light: EIVMTQSPATLSVSPGERATLSCRASQSVSSNLAWYQQKPGQAPRLLIHGASIRATGLPARFSGSGSGTEFTLTISSLQSEDFAVYYCQQYNYWWTFGQGTKVEIKRTVAAPSVFIFPPDVQMIQSPSSLSASLGDIVTMTCQASQGTSINLNWFQQKPGKAPKLLIYGSSNLEDGVPSRFSGSRYGTDFTLTISSLEDEDLATYFCLQHSYLPYTFGGGTKLEIKRTVAAPSVFIFPPSDEQLKSGTASVVCLLNNFYPREAKVQWKVDNALQSGNSQESVTEQDSKDSTYSLSSTLTLSKADYEKHKVYACEVTHQGLSSPVTKSFNRGEC | 0.012 | 0.012 | 3.3e-05 | 2.8e+06 | 0.78 | 0.00083 | 1.1e+06 | – | – | – | –
DVD1517 (bispecific antibody, human IgG1, kappa, DVD-Ig; linker set 3; also called DVD1517H; DVD1517L) heavy: not shown light: DIQMTQSPSSLSASVGDRVTITCRASQGIRIDLGWYQQKPGKAPKRLIYAASTLQSGVPSRFSGSGSGTEFIFTISSLQPEDFASYYCLQHKSYPLTFGGGTKVEIKRTVAAPDVQMIQSPSSLSASLGDIVTMTCQASQGTSINLNWFQQKPGKAPKLLIYGSSNLEDGVPSRFSGSRYGTDFTLTISSLEDEDLATYFCLQHSYLPYTFGGGTKLEIKRTVAAPSVFIFPPSDEQLKSGTASVVCLLNNFYPREAKVQWKVDNALQSGNSQESVTEQDSKDSTYSLSSTLTLSKADYEKHKVYACEVTHQGLSSPVTKSFNRGEC | 0.0012 | 0.018 | 4.7e-05 | 2.6e+06 | 5.5 | 0.0005 | 89000 | – | – | – | –
DVD1478 (bispecific antibody, human IgG1, kappa, DVD-Ig; linker set 2; also called DVD1478H; DVD1478L) heavy: not shown light: DIQMTQSPSSLSASVGDRVTITCRASQSISNNLNWYQQKPGKAPKLLIYYTSRFHSGVPSRFSGSGSGTDFTFTISSLQPEDIATYYCQQEHTLPYTFGQGTKLEIKRTVAAPSVFIFPPDIQMTQSPSSLSASVGDRVTITCRASQGIRIDLGWYQQKPGKAPKRLIYAASTLQSGVPSRFSGSGSGTEFIFTISSLQPEDFASYYCLQHKSYPLTFGGGTKVEIKRTVAAPSVFIFPPSDEQLKSGTASVVCLLNNFYPREAKVQWKVDNALQSGNSQESVTEQDSKDSTYSLSSTLTLSKADYEKHKVYACEVTHQGLSSPVTKSFNRGEC | 0.329 | 0.1 | 1.5e-05 | 150000 | – | – | – | 0.019 | 0.0025 | 6e-06 | 2.4e+06
